In paper doi:10.1101/2022.11.09.515846 (bioRxiv, 2022):

Target: T1, human Ndc80 loop segment (residues 370–509) with a cysteine added at each end (human, UniProt O14777 370-509)
T1 chain: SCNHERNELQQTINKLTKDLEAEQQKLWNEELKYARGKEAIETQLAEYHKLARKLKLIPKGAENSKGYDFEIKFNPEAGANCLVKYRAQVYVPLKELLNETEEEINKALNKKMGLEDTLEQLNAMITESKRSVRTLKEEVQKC
Experiment: crystal structure

binding result: binds
B1: human Nuf2 segment (residues 252–347) with a cysteine added at each end (domain or fragment)
chain: CKNYKEKMKDTVQKLKNARQEVVEKYEIYGDSVDCLPSCQLEVQLYQKKIQDLSDNREKLASILKESLNLEDQIESDESELKKLKTEENSFKRLMIVC
